According to patent US10702592B2, “Peptides and combination of peptides for use in immunotherapy against NHL and other cancers” (Immatics Biotechnologies GmbH, priority 2016, dated 2020):

Molecular target: HLA-A*02:01 (Homo sapiens, UniProt P04439, D140Y/D185E/D98H/E176V/E277Q/G131W/G231S/I119V/I121R/I166T/I218V/L300P/L318F/N151K/N90K/P208A/P217A/Q86G/Q94H/R138H/R169H/T345S)
Assay: MHC binding assay (UV-ligand exchange, beta2m ELISA)
Conditions: binding to HLA-A*02:01, UV-ligand exchange
Description: Candidate peptides for T cell based therapies according to the present invention were further tested for their MHC binding capacity (affinity). The individual peptide-MHC complexes were produced by UV-ligand exchange, where a UV-sensitive peptide is cleaved upon UV-irradiation, and exchanged with the peptide of interest as analyzed. Only peptide candidates that can effectively bind and stabilize the peptide-receptive MHC molecules prevent dissociation of the MHC complexes. To determine the yield of the exchange reaction, an ELISA was performed based on the detection of the light chain (β2m) of stabilized MHC complexes. The assay was performed as generally described in Rodenko et al. (Rodenko et al., 2006).
96 well MAXISorp plates (NUNC) were coated over night with 2 ug/ml streptavidin in PBS at room temperature, washed 4× and blocked for 1 h at 37° C. in 2% BSA containing blocking buffer. Refolded HLA-A*02:01/MLA-001 monomers served as standards, covering the range of 15-500 ng/ml. Peptide-MHC monomers of the UV-exchange reaction were diluted 100 fold in blocking buffer. Samples were incubated for 1 h at 37° C., washed four times, incubated with 2 ug/ml HRP conjugated anti-β2m for 1 h at 37° C., washed again and detected with TMB solution that is stopped with […]. Absorption was measured at 450 nm. Candidate peptides that show a high exchange yield (preferably higher than 50%, most preferred higher than 75%) are generally preferred for a generation and production of antibodies or fragments thereof, and/or T cell receptors or fragments thereof, as they show sufficient avidity to the MHC molecules and prevent dissociation of the MHC complexes.

| Substance | Peptide exchange (MHC class I binding score, peptide exchange yield) |
| --- | --- |
| 113 (FVIDSFEEL; listed as Homo sapiens) [compound 113] | “+++” (≥50 = +++) |
| 281 (TLQTVPLTTV; listed as Homo sapiens) [compound 281] | “++++” (≥75% = ++++) |
| 208 (FLAVSLPLL; listed as Homo sapiens) [compound 208] | “+++” (≥50 = +++) |
| 205 (TLFYESPHL; listed as Homo sapiens) [compound 205] | “+++” (≥50 = +++) |
| 130 (VIFSYVLGV; listed as Homo sapiens) [compound 130] | “+++” (≥50 = +++) |
| 251 (VLYELFTYI; listed as Homo sapiens) [compound 251] | “+++” (≥50 = +++) |
| 128 (KLFDASPTFFA; listed as Homo sapiens) [compound 128] | “+++” (≥50 = +++) |
| 116 (SLLDNLLTI; listed as Homo sapiens) [compound 116] | “+++” (≥50 = +++) |
| 89 (GLTALHVAV; listed as Homo sapiens) [compound 89] | “+++” (≥50 = +++) |
| 155 (KLMTSLVKV; listed as Homo sapiens) [compound 155] | “+++” (≥50 = +++) |
| 311 (YLHRQVAAV; listed as Homo sapiens) [compound 311] | “+++” (≥50 = +++) |
| 295 (SLAAVSQQL; listed as Homo sapiens) [compound 295] | “+++” (≥50 = +++) |
| 11 (GLDTVVALL; listed as Homo sapiens) [compound 11] | “+++” (≥50 = +++) |
| 157 (KVLEFLAKV; listed as Homo sapiens) [compound 157] | “+++” (≥50 = +++) |
| 314 (LIDDKGTIKL; listed as Homo sapiens) [compound 314] | “++” (≥20% = ++) |
| 131 (VLIEETDQL; listed as Homo sapiens) [compound 131] | “++” (≥20% = ++) |
| 177 (YLYEAEEATTL; listed as Homo sapiens) [compound 177] | “+++” (≥50 = +++) |
| 31 (KLYDEESLL; listed as Homo sapiens) [compound 31] | “++++” (≥75% = ++++) |
| 171 (TLLDVISAL; listed as Homo sapiens) [compound 171] | “++++” (≥75% = ++++) |

| Substance | Peptide exchange (MHC class I binding score, peptide exchange yield) |
| --- | --- |
| 257 (FLQEWEVYA; listed as Homo sapiens) [compound 257] | “++++” (≥75% = ++++) |
| 180 (GILQLVESV; listed as Homo sapiens) [compound 180] | “+++” (≥50 = +++) |
| 95 (LLFDLIPVVSV; listed as Homo sapiens) [compound 95] | “+++” (≥50 = +++) |
| 71 (VLLDYVGNVQL; listed as Homo sapiens) [compound 71] | “++++” (≥75% = ++++) |
| 214 (FLFDGSMSL; listed as Homo sapiens) [compound 214] | “+++” (≥50 = +++) |
| 280 (SLLNHLPYL; listed as Homo sapiens) [compound 280] | “++++” (≥75% = ++++) |
| 4 (TLLGFFLAKV; listed as Homo sapiens) [compound 4] | “++” (≥20% = ++) |
| 181 (LLFDQNDKV; listed as Homo sapiens) [compound 181] | “+++” (≥50 = +++) |
| 84 (FLQELQLEHA; listed as Homo sapiens) [compound 84] | “+++” (≥50 = +++) |
| 174 (VLVEITDVDFAA; listed as Homo sapiens) [compound 174] | “++++” (≥75% = ++++) |
| 150 (ILSEKEYKL; listed as Homo sapiens) [compound 150] | “+++” (≥50 = +++) |
| 245 (KLIQLPVVYV; listed as Homo sapiens) [compound 245] | “+++” (≥50 = +++) |
| 298 (ALTDVILCV; listed as Homo sapiens) [compound 298] | “++++” (≥75% = ++++) |
| 213 (YINEDEYEV; listed as Homo sapiens) [compound 213] | “++” (≥20% = ++) |
| 138 (NLINNIFEL; listed as Homo sapiens) [compound 138] | “++++” (≥75% = ++++) |
| 101 (SLDQSTWNV; listed as Homo sapiens) [compound 101] | “++++” (≥75% = ++++) |
| 297 (ILQNGLETL; listed as Homo sapiens) [compound 297] | “+++” (≥50 = +++) |
| 125 (FVAPPTAAV; listed as Homo sapiens) [compound 125] | “+++” (≥50 = +++) |
| 167 (SLFSITKSV; listed as Homo sapiens) [compound 167] | “+++” (≥50 = +++) |

| Substance | Peptide exchange (MHC class I binding score, peptide exchange yield) |
| --- | --- |
| 78 (AMEEAVAQV; listed as Homo sapiens) [compound 78] | “+++” (≥50 = +++) |
| 237 (YLDRLIPQA; listed as Homo sapiens) [compound 237] | “+++” (≥50 = +++) |
| 92 (KLLFEIASA; listed as Homo sapiens) [compound 92] | “+++” (≥50 = +++) |
| 148 (ICAGHVPGV; listed as Homo sapiens) [compound 148] | “+++” (≥50 = +++) |
| 244 (ILEPFLPAV; listed as Homo sapiens) [compound 244] | “+++” (≥50 = +++) |
| 147 (GLSEYQRNFL; listed as Homo sapiens) [compound 147] | “+++” (≥50 = +++) |
| 115 (LLIDIIHFL; listed as Homo sapiens) [compound 115] | “++++” (≥75% = ++++) |
| 267 (SLLETGSDLLL; listed as Homo sapiens) [compound 267] | “+++” (≥50 = +++) |
| 99 (QLYDGATALFL; listed as Homo sapiens) [compound 99] | “++” (≥20% = ++) |
| 300 (IVLERNPEL; listed as Homo sapiens) [compound 300] | “+++” (≥50 = +++) |
| 79 (AMKEEKEQL; listed as Homo sapiens) [compound 79] | “++” (≥20% = ++) |
| 302 (SLAELDEKISA; listed as Homo sapiens) [compound 302] | “+++” (≥50 = +++) |
| 104 (VLLGLPLLV; listed as Homo sapiens) [compound 104] | “+++” (≥50 = +++) |
| 179 (FVDTNLYFL; listed as Homo sapiens) [compound 179] | “+++” (≥50 = +++) |
| 158 (KVQDVLHQV; listed as Homo sapiens) [compound 158] | “+++” (≥50 = +++) |
| 149 (ILNPVTTKL; listed as Homo sapiens) [compound 149] | “+++” (≥50 = +++) |
| 176 (YLHIYESQL; listed as Homo sapiens) [compound 176] | “+++” (≥50 = +++) |
| 10 (FLLVGTQIDL; listed as Homo sapiens) [compound 10] | “+++” (≥50 = +++) |
